# Experimental data taken from US20200048350A1 (INHIBRX BIOSCIENCES, published 2020).
# Where a chain is given by its changes, count along the chain named.
# T1: DLL3 (human, UniProt Q9NYJ7 27-618)
# T1 construct: also called Delta-like 3; Human DLL3
# T1 sequence: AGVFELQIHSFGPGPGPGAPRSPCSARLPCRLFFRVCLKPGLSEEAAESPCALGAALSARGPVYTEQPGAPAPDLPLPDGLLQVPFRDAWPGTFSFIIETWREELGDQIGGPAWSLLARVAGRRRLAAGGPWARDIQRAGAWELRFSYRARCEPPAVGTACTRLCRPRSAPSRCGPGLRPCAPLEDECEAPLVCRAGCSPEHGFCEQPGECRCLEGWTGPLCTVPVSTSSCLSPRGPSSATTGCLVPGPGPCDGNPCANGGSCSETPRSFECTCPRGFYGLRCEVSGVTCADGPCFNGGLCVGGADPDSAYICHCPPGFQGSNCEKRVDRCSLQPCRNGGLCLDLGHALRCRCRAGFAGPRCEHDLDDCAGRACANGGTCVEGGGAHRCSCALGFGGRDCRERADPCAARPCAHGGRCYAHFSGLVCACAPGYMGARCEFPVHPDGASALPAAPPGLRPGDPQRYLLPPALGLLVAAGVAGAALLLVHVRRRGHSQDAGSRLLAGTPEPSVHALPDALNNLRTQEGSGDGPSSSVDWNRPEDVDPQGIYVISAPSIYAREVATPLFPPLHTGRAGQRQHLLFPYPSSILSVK
# T2: B7H3 (UniProt Q5ZPR3 29-534, limits assumed)
# T2 construct: whole, on cells; also called CD276
# T2 sequence (looked up): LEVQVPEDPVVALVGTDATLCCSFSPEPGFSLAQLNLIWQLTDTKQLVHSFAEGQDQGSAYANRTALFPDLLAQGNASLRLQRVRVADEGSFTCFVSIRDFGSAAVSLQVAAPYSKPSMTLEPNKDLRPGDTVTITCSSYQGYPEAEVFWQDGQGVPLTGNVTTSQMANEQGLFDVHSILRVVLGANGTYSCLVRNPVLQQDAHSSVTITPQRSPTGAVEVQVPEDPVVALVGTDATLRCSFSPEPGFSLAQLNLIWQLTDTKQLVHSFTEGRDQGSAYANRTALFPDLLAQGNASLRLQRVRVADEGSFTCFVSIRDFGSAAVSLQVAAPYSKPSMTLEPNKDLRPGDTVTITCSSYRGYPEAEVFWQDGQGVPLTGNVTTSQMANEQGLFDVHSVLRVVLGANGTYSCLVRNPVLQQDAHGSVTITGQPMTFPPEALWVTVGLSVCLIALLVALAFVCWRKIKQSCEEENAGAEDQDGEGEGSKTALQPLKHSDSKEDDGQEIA
# B1: cx5800 (other)
# chain 1: EVQLVESGGGEVQPGGSLRLSCAASGSIFSINAMGWYRQAPGKQRELVAGFTGDTNTIYAESVKGRFTISRDNAKNTVYLQMSSLRAEDTAVYYCAADVQLFSRDYEFYWGQGTLVTVKPPGGGGDKTHTCPPCPAPGGPSVFLFPPKPKDTLMISRTPEVTCVVVDVSHEDPEVKFNWYVDGVEVHNAKTKPREEQYNSTYRVVSVLTVLHQDWLNGKEYKCKVSNKALPAPIEKTISKAKGQPREPQVYTLPPCRDELTKNQVSLWCLVKGFYPSDIAVEWESNGQPENNYKTTPPVLDSDGSFFLYSKLTVDKSRWQQGNVFSCSVMHEALHNHYTQKSLSLSPTGGGGGSGGGGGSGGGGGSEVQLVESGGGLVQPGGSLRLSCAASGFTFNTYAMNWVRQAPGKCLEWVARIRSKYNNYATYYADSVKGRFTISRDDAKNTLYLQMSSLRAEDTAVYYCVRHGNFGNSYVSWFAYWGQGTLVTVKP
# chain 2: DKTHTCPPCPAPGGPSVFLFPPKPKDTLMISRTPEVTCVVVDVSHEDPEVKFNWYVDGVEVHNAKTKPREEQYNSTYRVVSVLTVLHQDWLNGKEYKCKVSNKALPAPIEKTISKAKGQPREPQVCTLPPSRDELTKNQVSLSCAVKGFYPSDIAVEWESNGQPENNYKTTPPVLDSDGSFFLVSKLTVDKSRWQQGNVFSCSVMHEALHNRYTQKSLSLSPTGGGGGSGGGGGSGGGGGSQAVVTQEPSLTVSPGGTVTLTCGSSTGAVTTSNYANWVQQKPGQAFRGLIGGTNKRAPGVPARFSGSLLGGKAALTISGAQPEDEADYYCALWYSNHWVFGCGTKLEIKGGGGEVQLLESGGGEVQPGGSLRLSCAASGFSFSINAMGWYRQAPGKRREFVAAIESGRNTVYAESVKGRFTISRDNAKNTVYLQMSSLRAEDTAVYYCGLLKGNRVVSPSVAYWGQGTLVTVKP
# notes: Fc alternatives printed; first written; Short peptide linkers only 'e.g.'; also called monovalent DLL3-targeted constrained CD3 engaging construct (N-terminal sdAb)
# B2: cx5352 (other)
# chain 1: EVQLVESGGGEVQPGGSLRLSCAASGSIFSINAMGWYRQAPGKQRELVAGFTGDTNTIYAESVKGRFTISRDNAKNTVYLQMSSLRAEDTAVYYCAADVQLFSRDYEFYWGQGTLVTVKPPGGGGDKTHTCPPCPAPGGPSVFLFPPKPKDTLMISRTPEVTCVVVDVSHEDPEVKFNWYVDGVEVHNAKTKPREEQYNSTYRVVSVLTVLHQDWLNGKEYKCKVSNKALPAPIEKTISKAKGQPREPQVYTLPPCRDELTKNQVSLWCLVKGFYPSDIAVEWESNGQPENNYKTTPPVLDSDGSFFLYSKLTVDKSRWQQGNVFSCSVMHEALHNHYTQKSLSLSPTGGGGGSGGGGGSGGGGGSEVQLVESGGGLVQPGGSLRLSCAASGFTFNTYAMNWVRQAPGKCLEWVARIRSKYNNYATYYADSVKGRFTISRDDAKNTLYLQMSSLRAEDTAVYYCVRHGNFGNSYVSWFAYWGQGTLVTVKPGGGGEVQLVESGGGEVQPGGSLRLSCGPSEIITSDKSMGWVRQAPGKQRNLVAGISNVGSTNYAQSVKGRFTISRDNAKNTVYLQMSSLRAEDTAVYYCYARDFENEYWGQGTLVTVKP
# chain 2: B1 chain 2
# notes: Fc alternatives printed; first written; Short peptide linkers only 'e.g.'
# B3: cx5801 (other)
# chain 1: DKTHTCPPCPAPGGPSVFLFPPKPKDTLMISRTPEVTCVVVDVSHEDPEVKFNWYVDGVEVHNAKTKPREEQYNSTYRVVSVLTVLHQDWLNGKEYKCKVSNKALPAPIEKTISKAKGQPREPQVYTLPPCRDELTKNQVSLWCLVKGFYPSDIAVEWESNGQPENNYKTTPPVLDSDGSFFLYSKLTVDKSRWQQGNVFSCSVMHEALHNHYTQKSLSLSPTGGGGGSGGGGGSGGGGGSEVQLVESGGGLVQPGGSLRLSCAASGFTFNTYAMNWVRQAPGKCLEWVARIRSKYNNYATYYADSVKGRFTISRDDAKNTLYLQMSSLRAEDTAVYYCVRHGNFGNSYVSWFAYWGQGTLVTVKPGGGGEVQLVESGGGEVQPGGSLRLSCGPSEIITSDKSMGWVRQAPGKQRNLVAGISNVGSTNYAQSVKGRFTISRDNAKNTVYLQMSSLRAEDTAVYYCYARDFENEYWGQGTLVTVKP
# chain 2: B1 chain 2
# notes: Fc alternatives printed; first written; Short peptide linkers only 'e.g.'; also called monovalent DLL3-targeted constrained CD3 engaging construct (C-terminal sdAb)
# B4: cx5187 (other)
# chain 1: EVQLVESGGGEVQPGGSLRLSCAASGFSFSSNVMMWVRQAPGKGLEWVSTIYSSGTGTFYAESVKGRFTISRDNAKNTLYLQMSSLRPEDTAVYYCATSGPVRGWGPRSQGTLVTVKPPGGGGDKTHTCPPCPAPGGPSVFLFPPKPKDTLMISRTPEVTCVVVDVSHEDPEVKFNWYVDGVEVHNAKTKPREEQYNSTYRVVSVLTVLHQDWLNGKEYKCKVSNKALPAPIEKTISKAKGQPREPQVYTLPPCRDELTKNQVSLWCLVKGFYPSDIAVEWESNGQPENNYKTTPPVLDSDGSFFLYSKLTVDKSRWQQGNVFSCSVMHEALHNHYTQKSLSLSPTGGGGGSGGGGGSGGGGGSEVQLVESGGGLVQPGGSLRLSCAASGFTFNTYAMNWVRQAPGKCLEWVARIRSKYNNYATYYADSVKGRFTISRDDAKNTLYLQMSSLRAEDTAVYYCVRHGNFGNSYVSWFAYWGQGTLVTVKPGGGGEVQLVESGGGEVQPGGSLRLSCAASGFTFSSYHMSWFRQAPGKQREPVATSHHGGTTNYAGSVKGRFTISRDNAKNTVYLQMNTLRAEDTAVYYCKADHGYQGRGYWGQGTLVTVKP
# chain 2: B1 chain 2
# notes: hole 91, 93 or 296, differing at the C-terminal end; the first is written; also called bivalent, bi-epitopic B7H3-targeted constrained CD3 engaging construct; Knob-VH
# B5: cx5873 (other)
# chain 1: DKTHTCPPCPAPGGPSVFLFPPKPKDTLMISRTPEVTCVVVDVSHEDPEVKFNWYVDGVEVHNAKTKPREEQYNSTYRVVSVLTVLHQDWLNGKEYKCKVSNKALPAPIEKTISKAKGQPREPQVYTLPPCRDELTKNQVSLWCLVKGFYPSDIAVEWESNGQPENNYKTTPPVLDSDGSFFLYSKLTVDKSRWQQGNVFSCSVMHEALHNHYTQKSLSLSPTGGGGGSGGGGGSGGGGGSEVQLVESGGGLVQPGGSLRLSCAASGFTFNTYAMNWVRQAPGKCLEWVARIRSKYNNYATYYADSVKGRFTISRDDAKNTLYLQMSSLRAEDTAVYYCVRHGNFGNSYVSWFAYWGQGTLVTVKPGGGGEVQLVESGGGEVQPGGSLRLSCAASGFTFSSYHMSWFRQAPGKQREPVATSHHGGTTNYAGSVKGRFTISRDNAKNTVYLQMNTLRAEDTAVYYCKADHGYQGRGYWGQGTLVTVKP
# chain 2: B1 chain 2
# notes: Fc alternatives printed; first written; Short peptide linkers only 'e.g.'; also called monovalent B7H3-targeting constrained CD3 engaging construct (C-terminal sdAb)
# B6: cx5965 (other)
# chain 1: EVQLVESGGGEVQPGGSLRLSCAASGFSFSSNVMMWVRQAPGKGLEWVSTIYSSGTGTFYAESVKGRFTISRDNAKNTLYLQMSSLRPEDTAVYYCATSGPVRGWGPRSQGTLVTVKPPGGGGDKTHTCPPCPAPGGPSVFLFPPKPKDTLMISRTPEVTCVVVDVSHEDPEVKFNWYVDGVEVHNAKTKPREEQYNSTYRVVSVLTVLHQDWLNGKEYKCKVSNKALPAPIEKTISKAKGQPREPQVYTLPPCRDELTKNQVSLWCLVKGFYPSDIAVEWESNGQPENNYKTTPPVLDSDGSFFLYSKLTVDKSRWQQGNVFSCSVMHEALHNHYTQKSLSLSPTGGGGGSGGGGGSGGGGGSEVQLVESGGGLVQPGGSLRLSCAASGFTFNTYAMNWVRQAPGKCLEWVARIRSKYNNYATYYADSVKGRFTISRDDAKNTLYLQMSSLRAEDTAVYYCVRHGNFGNSYVSWFAYWGQGTLVTVKP
# chain 2: B1 chain 2
# notes: Fc alternatives printed; first written; Short peptide linkers only 'e.g.'; also called monovalent B7H3-targeting constrained CD3 engaging construct (N-terminal sdAb)
# B7: cx5823 (other)
# chain 1: B4 chain 1 with T346G, P540L
# chain 2: B1 chain 2 with T223G
# notes: Short peptide linkers only 'e.g.'; also called bivalent B7H3-targeting constrained CD3 engaging construct
# Molecular target: T1, DLL3
# Assay: flow cytometry on SHP-77 cells, anti-human IgG Fc secondary
# Experimental: (§1) Binding of exemplary multispecific constructs containing an antigen-binding domain directed against DLL3 were assessed for binding to DLL3 positive SHP-77 tumor cells or primary T-cells. […] These binding assays were conducted by flow cytometry, wherein bound constructs were detected using a fluorophore-conjugated anti-human IgG Fc secondary antibody.
row,Binder,binding result
1,B1,binds
2,B2,binds
3,B3,binds

# Molecular target: T3, CD3 (human, UniProt P07766 23-207)
# T3 construct: whole, on cells; CD3 is a multi-chain complex; also called CD3ε; CD3 on the surface of primary T cells
# T3 sequence (P07766 23-207): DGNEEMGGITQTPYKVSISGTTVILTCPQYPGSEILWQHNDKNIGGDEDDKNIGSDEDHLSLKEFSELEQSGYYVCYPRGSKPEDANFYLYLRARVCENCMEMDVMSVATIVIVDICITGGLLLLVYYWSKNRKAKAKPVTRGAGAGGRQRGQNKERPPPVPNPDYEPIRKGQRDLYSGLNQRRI
# Assay: flow cytometry on primary T cells, anti-human IgG Fc secondary
# Experimental: as §1
row,Binder,binding result
1,B1,no binding
2,B2,no binding
3,B3,no binding

# Molecular target: T2, B7H3
# Assay: cell binding assay on A375 cells
row,Binder,binding result
1,B4,binds
2,B5,binds
3,B6,binds

# Molecular target: T3, CD3
# Assay: cell binding assay on isolated primary T cells
row,Binder,binding result
1,B4,no binding
2,B5,no binding
3,B6,no binding
4,B7,no binding
